Assay results from article PMC8225904.

Biological target: mAb X’ (E262K sequence variant containing mAb X)
Test: ELISA; plates coated with serially diluted mAb, constant amount of C1q added, detected with biotinylated anti-C1q antibody and HRP-streptavidin; relative binding by parallel line analysis against mAb X

relative binding against mAb X: 0.95
Substance: C1q protein (complex)
